± gives the uncertainty stated by the source.

A short description of the data set: amyloid nucleation score (Sup35N fusion, yeast selection) (log enrichment); library NNK3; higher = more nucleation; inactive = no reads after selection. The essentials:
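In psi-negative yeast, Sup35N fusions carrying peptides of 20 random codons were induced with 100 μM copper sulfate for 24 hours. The cells then grew 7 days at 30°C on medium lacking adenine and uracil, and plasmid inserts from input and output were Illumina-sequenced, excluding sequences with under 100 input reads. Nucleation score is the DiMSum log enrichment of output over input reads, centred on the mode score of non-aggregating sequences.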
In the case of VSSAYLKCSFLKNLAVSLYG, the amyloid nucleation score entry is “inactive”.
Turning to WLWTLALNFTYKYFMCGKYK, the amyloid nucleation score entry is “inactive”.
In the case of FVYWLILYLRRVAERR, the amyloid nucleation score result was “inactive”.
The result for LGLECVGPFCKGVYFWLDG reads “inactive”.
Substance CISTVIEKMLVIYEKNRFQH registered an amyloid nucleation score of 0.529 ± 0.46.
Consider MTGDPGQFNAGDRLM, for which the amyloid nucleation score result was “inactive”.
The result for FDSKVWSAQRVRSTRLLSLG reads “inactive”.
The substance LKWNTTSVNVVYLSFIIGRQ yielded an amyloid nucleation score of 2.15 ± 0.086.
In turn, MPSRCMLDSTIILYYWRFEH yielded an amyloid nucleation score of 0.781 ± 0.28.
Regarding DPGHRGLTDFYSMFRL, the amyloid nucleation score entry is “inactive”.
The result for PYLAGWRSLIPFNTSLCSGC reads “inactive”.
As for YLPSSSEFR, the amyloid nucleation score entry was “inactive”.
In the case of SYCKATRSVRQSNSARVVVR it was “inactive”; in that of YQNGLARWTWKYRNVINVLS, “inactive”.
For the substance NTHMRAIMNPLDVSVPRPHK, the amyloid nucleation score entry was “inactive”.
Regarding FSSMQDWSFGIYLNSEAPPT, the amyloid nucleation score result is “inactive”.
For RIINCDKLSQTTALYIKTFM, the amyloid nucleation score entry was “inactive”.
The result for LASKLDCVLPHYNVGRCNDP reads 0.297 ± 0.7; that for SLLCKFIVRNPNSSLIRSAS, “inactive”; that for SPGPFR, “inactive”.
For THISQNLQSVVHLYVLRKVV, the amyloid nucleation score entry is “inactive”.
The result for YMYFKVDVDWRSPGMTARLL reads “inactive”; that for LDSIPSMSTVLLMSASGCND, “inactive”; that for FSHHIDTFV, “inactive”.
AENINCKMM gave an amyloid nucleation score of 1.45 ± 0.12.
VYVLFRLCNNRFRKELIATL: the amyloid nucleation score result is “inactive”.
As for QKQFYGWVAESFARGATIPR, the amyloid nucleation score is 0.871 ± 0.21.
On to AFYYWVDEMVSLNIRLSFYN, for which the amyloid nucleation score result was “inactive”.
For the substance TNDAGHVWYSLCLRIFNTNV, the amyloid nucleation score result was “inactive”.
In the case of VNCTNLRKPLQLTQ it was “inactive”.
On to FVPFERNKMIMKRICEVCVA, for which the amyloid nucleation score turned out to be 0.97 ± 0.11.
On to MIKVLCTLFIDWAVAYVICH, for which the amyloid nucleation score entry was “inactive”.
As for RVLYGTICIFVGYFLVMSCV, the amyloid nucleation score is -0.21 ± 0.57.
As for NFDKFDRRRWVMIIVYMAPA, the amyloid nucleation score result was “inactive”.
Take FKAMLD: the amyloid nucleation score result was “inactive”.
TMCKRLVVTYQLAYWRVSV: the amyloid nucleation score entry is “inactive”.
For the substance KSGICGCVGHLVHKPMQLRV, the amyloid nucleation score entry was “inactive”.
For CAMTLRTFFQPPPITTSKYC, the amyloid nucleation score entry was “inactive”.
Consider EVGYKTVFPVGIMNDIVMWM, for which the amyloid nucleation score entry is “inactive”.
As to ICTECAYFSTWRHSMCITWG, the amyloid nucleation score entry was “inactive”.
Take YLSDVLSLWCSVQIWSGLYC: the amyloid nucleation score entry was “inactive”.
In the case of CFVFWKSRQIYWMMMSRCVV, the amyloid nucleation score result is “inactive”.
Consider VIIINRVIENRWSDRHEITN, for which the amyloid nucleation score was 2.57 ± 0.053.
As to HAFYALDKKVPVTQLKFARQ, the amyloid nucleation score was -0.315 ± 0.84.
Substance YAVYRTPFVSKLAMFQLVQ returned an amyloid nucleation score of -1.04 ± 1.9.
As to VCGDRKIFNHADVVYRMGRS, the amyloid nucleation score result was “inactive”.
For the substance KLDLKCIIRHWV, the amyloid nucleation score entry was “inactive”.
DHAIM had an amyloid nucleation score of 1.46 ± 0.14.
In the case of MMMCG it was “inactive”; in that of LCESSLKDNGVTSLFVWVLK, “inactive”.
In the case of SSPKMMCSFFDMSTLPFVYD it was “inactive”; in that of MFGFRNITK, 0.583 ± 0.2; in that of VIICIAGGLPMRTH, 1.71 ± 0.06.
As to HWKLHALGRWAGQGFTR, the amyloid nucleation score result is “inactive”.
On to WGWMSTIKIVG, for which the amyloid nucleation score result was “inactive”.
Consider NDREWNKRYGINTKQPAAVT, for which the amyloid nucleation score entry is “inactive”.
Turning to CVAECPLA, the amyloid nucleation score result was “inactive”.
The result for VLRFFM reads 0.399 ± 0.23; that for NCTDLLRMLYGMRRGINSNC, “inactive”.
For PYETGRKCNA, the amyloid nucleation score result is “inactive”.
For the substance MRWVHSHANHPLHA, the amyloid nucleation score result is “inactive”.
For the substance HSVFISLGMFRPVTSYL, the amyloid nucleation score result was “inactive”.
In the case of CRRIYPFRP, the amyloid nucleation score was -0.064 ± 0.66.
As for MVCFYHTGELPDWENR, the amyloid nucleation score entry was “inactive”.
Turning to NCGSYSKSDN, the amyloid nucleation score result is “inactive”.
For HKLYEWACSRSTALNYIGQI, the amyloid nucleation score entry is “inactive”.
In turn, IIASDLSLSVVNVFN yielded an amyloid nucleation score of 0.341 ± 0.31.
In the case of MIYSTRSVFDFCGTFNTVVY, the amyloid nucleation score result was “inactive”.
As to FSWMC, the amyloid nucleation score entry is “inactive”.
In the case of IADDQTYLLVLLFYFIKKLN it was “inactive”; in that of GVSRLETGNFAASPMMHYKG, “inactive”.
As to LCFARGLRCTSSVAVESGD, the amyloid nucleation score entry was “inactive”.
Regarding RANLPRLFQNDHNSWLDCVA, the amyloid nucleation score result is “inactive”.
Consider INYIIVSGSAGIRMTGK, for which the amyloid nucleation score turned out to be 2.52 ± 0.064.
As for YQDLP, the amyloid nucleation score entry is “inactive”.
In the case of TEYCIYFLEV it was “inactive”.
Substance DLTLIWMGGAAM had an amyloid nucleation score of 0.826 ± 0.22.
The result for RFVYRVNNRSKVLSEARMCI reads “inactive”.
Turning to DNFVY, the amyloid nucleation score entry is “inactive”.
Take FALCFKRQIGRVSRVVCHVY: the amyloid nucleation score entry was “inactive”.
Regarding DMGRCCSRKLRRRTPYVKGR, the amyloid nucleation score result was “inactive”.
The result for RNHGGNDSDILRRSESMSDR reads “inactive”; that for FSDCQLESGCCHRSRDLIGL, “inactive”.
With LWDDMVIMFGPVICYGMASG, the amyloid nucleation score result was “inactive”.
Regarding GRPHEPGKFIRNSSIGSGS, the amyloid nucleation score is -0.479 ± 1.1.
Substance TCNKLIVRLCDAHKERA yielded an amyloid nucleation score of 0.745 ± 0.13.
For the substance GLLPSKKILFLAILTHNRCW, the amyloid nucleation score result was “inactive”.
Turning to AKYIEHGYCF, the amyloid nucleation score result was “inactive”.
As to SSCSSDLAKQYGDMTFI, the amyloid nucleation score result is “inactive”.
Take GDEVHGFIVVQSREAFSRKL: the amyloid nucleation score result is “inactive”.
The result for TRSIVY reads “inactive”.
With NCICWASYQTGLE, the amyloid nucleation score result was “inactive”.
The result for IFVSCCLLRLSAGWVVKLIR reads “inactive”; that for HSITNITCSFDLAFLRMHVL, 0.871 ± 0.11; that for LVRIMYL, “inactive”.
With GLGMGAPQSILWVGDLLMTN, the amyloid nucleation score entry was “inactive”.
For YINSATRFDKFM, the amyloid nucleation score result is “inactive”.
With LDFKIPRN, the amyloid nucleation score entry was “inactive”.

Source of the values: the supplement of paper PMC12042874.
